Source: patent US20210253718A1, “FRIZZLED5 PROTEIN-BINDING AGENTS” (Modmab Therapeutics Corporation, priority 2016, published 2021)
Substitutions are numbered along the chain they refer to.

Columns and labels:
Experiment in all cases: Flow cytometry of anti-FZD5 Fab binding to CHO cells overexpressing Frizzled CRD
FZD2 CRD = biological target: T1, FZD2 CRD (Homo sapiens, UniProt Q14332)
T1 construct: D35-P161; GPI anchor signal (C); expressed in transfected cells; host or cells: CHO cells, lentiviral pLenti-puro
Procedure, shortened: (§1)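 CHO lines each expressing a different human Frizzled CRD, myc-tagged and GPI-anchored at the surface, stained with 200 nM Fab, then Alexa Fluor 488 F(ab′)2 secondary. Dead cells excluded by viability dye; anti-c-Myc staining served as expression control. Binding read by flow cytometry.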

FZD5 CRD = biological target: T2, FZD5 CRD (Homo sapiens, UniProt Q13467)
T2 construct: K29-T156; GPI anchor signal (C); expressed in transfected cells; host or cells: CHO cells, lentiviral pLenti-puro
T2 sequence (Q13467 29-156): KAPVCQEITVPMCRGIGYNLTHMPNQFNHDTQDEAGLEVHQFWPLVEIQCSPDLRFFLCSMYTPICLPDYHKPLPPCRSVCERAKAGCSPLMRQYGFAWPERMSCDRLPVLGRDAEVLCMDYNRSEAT
Procedure, shortened: as §1

FZD7 CRD = biological target: T3, FZD7 CRD (Homo sapiens, UniProt O75084)
T3 construct: D45-S169; GPI anchor signal (C); expressed in transfected cells; host or cells: CHO cells, lentiviral pLenti-puro
Procedure, shortened: as §1

FZD8 CRD = biological target: T4, FZD8 CRD (Homo sapiens, UniProt Q9H461)
T4 construct: K31-D155; GPI anchor signal (C); expressed in transfected cells; host or cells: CHO cells, lentiviral pLenti-puro
T4 sequence (Q9H461 31-155): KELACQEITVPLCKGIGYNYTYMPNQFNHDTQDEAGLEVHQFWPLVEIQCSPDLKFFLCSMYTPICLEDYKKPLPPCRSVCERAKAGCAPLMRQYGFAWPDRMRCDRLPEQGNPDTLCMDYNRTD
Procedure, shortened: as §1

B1: Fab-2907: anti-FZD5 Fab with antibody variable region Fv-2907; CDR SEQ ID NOs: 35, 36, 46, 85, 122, 159 (antibody, V domains shown)
VH: EVQLVESGGGLVQPGGSLRLSCAASGFNIYSSYMHWVRQAPGKGLEWVASISSYSGSTYYADSVKGRFTISADTSKNTAYLQMNSLRAEDTAVYYCARSSWGAYIVSYGFDYWGQGTLVTVSS
VL: DIQMTQSPSSLSASVGDRVTITCRASQSVSSAVAWYQQKPGKAPKLLIYSASSLYSGVPSRFSGSRSGTDFTLTISSLQPEDFATYYCQQVGYWWGLITFGQGTKVEIK
FZD2 CRD
  Median fluorescence, Frizzled CRD overexpressed on CHO cells: FZD2: 4.07
FZD5 CRD
  Median fluorescence, Frizzled CRD overexpressed on CHO cells: FZD5: 32.78
FZD7 CRD
  Median fluorescence, Frizzled CRD overexpressed on CHO cells: FZD7: 2.62
FZD8 CRD
  Median fluorescence, Frizzled CRD overexpressed on CHO cells: FZD8: 11.76

B2: Fab-2925: anti-FZD5 Fab with antibody variable region Fv-2925; CDR SEQ ID NOs: 35, 36, 64, 102, 140, 172 (antibody, V domains shown)
VH: EVQLVESGGGLVQPGGSLRLSCAASGFNLSYSSMHWVRQAPGKGLEWVASIYPSYGSTYYADSVKGRFTISADTSKNTAYLQMNSLRAEDTAVYYCARYGYFGLDYWGQGTLVTVSS
VL: B1 VL with V91A, G92W, Y93V, W94Y, W95A, G96S, I98F
FZD2 CRD
  Median fluorescence, Frizzled CRD overexpressed on CHO cells: FZD2: 10.65
FZD7 CRD
  Median fluorescence, Frizzled CRD overexpressed on CHO cells: FZD7: 24.14
FZD8 CRD
  Median fluorescence, Frizzled CRD overexpressed on CHO cells: FZD8: 7.70

B3: Fab-2915: anti-FZD5 Fab with antibody variable region Fv-2915; CDR SEQ ID NOs: 35, 36, 54, 93, 130, 166 (antibody, V domains shown)
VH: EVQLVESGGGLVQPGGSLRLSCAASGFNIYYYSMHWVRQAPGKGLEWVASIYSSYGYTSYADSVKGRFTISADTSKNTAYLQMNSLRAEDTAVYYCARGYHYYPYYSGLDYWGQGTLVTVSS
VL: DIQMTQSPSSLSASVGDRVTITCRASQSVSSAVAWYQQKPGKAPKLLIYSASSLYSGVPSRFSGSRSGTDFTLTISSLQPEDFATYYCQQAYYHSLITFGQGTKVEIK
FZD5 CRD
  Median fluorescence, Frizzled CRD overexpressed on CHO cells: FZD5: 27.63
FZD8 CRD
  Median fluorescence, Frizzled CRD overexpressed on CHO cells: FZD8: 10.00
